{"source": "patent US11549134B2", "about": "“Modified amadoriase and method for producing the same, agent for improving surfactant resistance of amadoriase and composition for measuring HbA1c using the same” (Kikkoman Corporation, priority 2013, dated 2023)", "molecules": {"B1": {"name": "CFP-T7: amadoriase derived from the genus Coniochaeta, SEQ ID NO: 1; triple variant with mutations at positions 272, 302 and 388 (protein, listed as Coniochaeta sp.)", "chain": "MTSNRADTRVIVVGGGGTIGSSTALHLVRSGYAPANITVLDTFEIPSAQSAGHDLNKIMGIRLRNKVDLQMSLEARQMWKEDELFQPFFHNTGRMDCEHTPEGIEDLKKQYQALHDAGAGLEKTHAWLDNEDEILSKMPLLQRDQIQGWKAIWSQDGGWLAAAKAINAIGQFLKERGVKFGFGGAGSFKQPLFDDEGTTCIGVETADGTKYYADKVVLAAGAWSPTLVDLEDQCCSKAWVYAHIQLTPEEAAEYKGVPVVYNGEFGFFFEPDEFGVIKVCDEFPGFSRFKEHQPYGAPSPKRISVPRSHAKHPTDTYPDASEVSIKKAIATFLPRFQDKELFNRALCWCTDTADAALLMCEHPKWKNFILATGDSGHSFKILPNVGKYVVELIEGRLPEEMAYQWRWRPGGDALKSRRAAPPKDLADMPGWKHDPKL"}}, "type_in_all_cases": "biochemical", "key": {"[1]": {"test": "Surfactant resistance (residual activity), 0.04% SDS", "conditions": "30 mM MES/21 mM Tris buffer (pH 6.5)", "experimental": "An amadoriase crude enzyme solution or an amadoriase purified sample is diluted with a 30 mM MES/21 mM Tris buffer solution (pH6.5) so as to have a concentration of about 1.0 U/ml. To this, CTAC (for example, manufactured by Tokyo Kasei Kogyo Co., Ltd.) is added so as to obtain a final concentration 0.01% (w/v) or 0.04%. The resultant mixture is heated at 30° C. for 5 minutes. After heating, the mixture is diluted double with a 10 mM phosphate buffer (pH7.0) containing 0.15% BSA to prepare a sample. The enzyme activities of the sample before and after a surfactant treatment are measured by the method described in Section B above. […] In this manner, surfactant resistance is evaluated.\nThe stability of CFP-D was evaluated using sodium dodecyl sulfate (hereinafter indicated with “SDS”) in place of the surfactant CTAC used in Example 2. The surfactant resistance of the modified amadoriases was evaluated in accordance with a measurement method for surfactant resistance according to Example 1 although under surfactant treatment conditions in which the amadoriases were each diluted in a 30 mM MES/21 mM Tris buffer solution (pH 6.5) and mixed with 0.04% SDS. In this respect, it was confirmed that when the warmed sample was again measured for activity 30 minutes after 2-fold dilution in a BSA solution, there was no change in the activity value."}, "[2]": {"test": "Surfactant resistance (residual activity) of purified enzymes with various surfactants", "conditions": "20 mM potassium phosphate pH 7.0, purified enzyme", "experimental": "An amadoriase crude enzyme solution or an amadoriase purified sample is diluted with a 30 mM MES/21 mM Tris buffer solution (pH6.5) so as to have a concentration of about 1.0 U/ml. To this, CTAC (for example, manufactured by Tokyo Kasei Kogyo Co., Ltd.) is added so as to obtain a final concentration 0.01% (w/v) or 0.04%. The resultant mixture is heated at 30° C. for 5 minutes. After heating, the mixture is diluted double with a 10 mM phosphate buffer (pH7.0) containing 0.15% BSA to prepare a sample. The enzyme activities of the sample before and after a surfactant treatment are measured by the method described in Section B above. The ratio of activity of the sample after the surfactant treatment relative to the activity of the sample before the surfactant treatment (regarded as 100), i.e., the residual activity (%), is obtained. In this manner, surfactant resistance is evaluated.\nUsing various surfactants, the stability of the purified enzymes CFP-T7, CFP-D2, and CFP-D7 obtained as described above was evaluated. The surfactant resistance of the modified amadoriases was evaluated in accordance with a measurement method for surfactant resistance according to Example 1 although under surfactant treatment conditions in which the amadoriases were each diluted in a 20 mM potassium phosphate buffer solution (pH 7.0) and mixed with any of various concentrations of the surfactants. In this respect, it was confirmed that when the warmed sample was again measured for activity 30 minutes after 2-fold dilution in a BSA solution, there was no change in the activity value."}, "[3]": {"test": "Measurement of fructosyl peptide sample (αFVH) under mixing of CTAC, change in absorbance at 751 nm", "experimental": "The purified enzyme of CFP-T7 and CFP-D7 obtained in Example 3-2 was used to measure a sample as shown below. The activity values of CFP-T7 and CFP-D7 were determined using (reagent 1) adjusted to pH 7.0 with αFVH at a final concentration of 5 mM as a substrate according to the method for measuring amadoriase activity.\n(Reagent 4) αFVH (125 mg) was dissolved in ion-exchanged water, the volume of the solution was fixed to 10 ml, and thereby a 30 mM substrate solution was obtained. In addition, the resultant was diluted by 1/714 with a CTAC solution to provide a 42 μM αFVH/0% to 0.2% CTAC solution.\n(Reagent 6) (50 μl) was added to a mixed solution of 135 μl of (reagent 5) warmed at 37° C. for 5 minutes in advance and 25 μl of the sample prepared in (11) above to start reaction, and absorbance at a wavelength of 751 nm after reaction at 37° C. for 5 minutes was measured using an automated analyzer, Bio Majesty JCA-BM1650 (from JEOL Ltd.). Absorbance (reagent blank) at a wavelength of 751 nm measured by a similar operation for (reagent 4) prepared using ion-exchanged water in place of the substrate solution was used as a control to calculate the amount of change in absorbance (difference) when each sample was measured, using the following equation. The final concentration of a colorimetric substrate, DA-64, was 0.15 mM; the final concentration of αFVH in the case of the presence of a substrate was 5 μM; and the length (optical path) of the cell used for absorbance measurement was 1 cm. Amount of change in absorbance=ΔAes−Ae0\nThe amount of change in absorbance when αFVH/0% to 0.2% CTAC were used as samples was calculated.\nThe purified preparations of amadoriases obtained as described above were used as samples to measure αFVH under the mixing of CTAC using PnFX and NvFX as in Example 5."}}, "data": [{"molecule": "B1", "values": [{"measurement": "Residual Activity(%)", "setting": "[1]", "value": 2.76, "unit": "%"}, {"measurement": "Residual Activity(%)", "setting": "[2]; Benzylcetyldimethyl ammonium Chloride (BCDAC) 0.04%", "value": 1.4, "unit": "%"}, {"measurement": "Residual Activity(%)", "setting": "[2]; Benzyldodecyldimethyl ammonium Bromide (BDDAB) 0.10%", "value": 1.4, "unit": "%"}, {"measurement": "Residual Activity(%)", "setting": "[2]; Benzyltetradecyldimethyl ammonium Chloride (BDTAC) 0.04%", "value": 0.7, "unit": "%"}, {"measurement": "Residual Activity(%)", "setting": "[2]; Dodecylpyridinium Chloride (1-DPC) 0.16%", "value": 3.4, "unit": "%"}, {"measurement": "Residual Activity(%)", "setting": "[2]; Dodecyltrimethylammonium Bromide (DTAB) 0.30%", "value": 12.2, "unit": "%"}, {"measurement": "Residual Activity(%)", "setting": "[2]; Hexadecylpyridinium Bromide (1-CPB) 0.04%", "value": 0.7, "unit": "%"}, {"measurement": "Residual Activity(%)", "setting": "[2]; Hexadecylpyridinium Chloride (1-CPC) 0.04%", "value": 1.4, "unit": "%"}, {"measurement": "Residual Activity(%)", "setting": "[2]; Hexadecyltrimethylammonium Chloride (CTAC) 0.04%", "value": 2.3, "unit": "%"}, {"measurement": "Residual Activity(%)", "setting": "[2]; N-Cetyl-4-methylpyridinium Chloride (4Me-1-CPC) 0.04%", "value": 1.5, "unit": "%"}, {"measurement": "Residual Activity(%)", "setting": "[2]; Octadecyltrimethylammonium Bromide (STAB) 0.01%", "value": 59.7, "unit": "%"}, {"measurement": "Residual Activity(%)", "setting": "[2]; Octadecyltrimethylammonium Chloride (STAC) 0.02%", "value": 49.3, "unit": "%"}, {"measurement": "Residual Activity(%)", "setting": "[2]; Octyltrimethylammonium Bromide (OTAB) 0.80%", "value": 87.7, "unit": "%"}, {"measurement": "Residual Activity(%)", "setting": "[2]; Octyltrimethylammonium Chloride (OTAC) 1.20%", "value": 94.1, "unit": "%"}, {"measurement": "Residual Activity(%)", "setting": "[2]; Tetradecyltrimethylammonium Bromide (TTAB) 0.04%", "value": 31.7, "unit": "%"}, {"measurement": "Residual Activity(%)", "setting": "[2]; Tetradecyltrimethylammonium Chloride (TTAC) 0.04%", "value": 4.1, "unit": "%"}, {"measurement": "Residual Activity(%)", "setting": "[2]; Tributylhexadecyl phosphonium Bromide (TBCPB) 0.04%", "value": 3.1, "unit": "%"}, {"measurement": "Amount of Change in Absorbance at Wavelength of 751 nm under Mixing of Each Concentration of CTAC", "setting": "[3]; Mixing of CTAC 0%, as in Example 5, Table 7", "value": 0.150}, {"measurement": "Amount of Change in Absorbance at Wavelength of 751 nm under Mixing of Each Concentration of CTAC", "setting": "[3]; Mixing of CTAC 0%, αFVH final 5 μM, 37°C, 5 minutes, Table 5", "value": 0.150}, {"measurement": "Amount of Change in Absorbance at Wavelength of 751 nm under Mixing of Each Concentration of CTAC", "setting": "[3]; Mixing of CTAC 0.005%, αFVH final 5 μM, 37°C, 5 minutes, Table 5", "value": 0.111}, {"measurement": "Amount of Change in Absorbance at Wavelength of 751 nm under Mixing of Each Concentration of CTAC", "setting": "[3]; Mixing of CTAC 0.01%, as in Example 5, Table 7", "value": 0.077}, {"measurement": "Amount of Change in Absorbance at Wavelength of 751 nm under Mixing of Each Concentration of CTAC", "setting": "[3]; Mixing of CTAC 0.01%, αFVH final 5 μM, 37°C, 5 minutes, Table 5", "value": 0.077}, {"measurement": "Amount of Change in Absorbance at Wavelength of 751 nm under Mixing of Each Concentration of CTAC", "setting": "[3]; Mixing of CTAC 0.02%, as in Example 5, Table 7", "value": 0.031}, {"measurement": "Amount of Change in Absorbance at Wavelength of 751 nm under Mixing of Each Concentration of CTAC", "setting": "[3]; Mixing of CTAC 0.02%, αFVH final 5 μM, 37°C, 5 minutes, Table 5", "value": 0.031}, {"measurement": "Amount of Change in Absorbance at Wavelength of 751 nm under Mixing of Each Concentration of CTAC", "setting": "[3]; Mixing of CTAC 0.04%, as in Example 5, Table 7", "value": 0.005}, {"measurement": "Amount of Change in Absorbance at Wavelength of 751 nm under Mixing of Each Concentration of CTAC", "setting": "[3]; Mixing of CTAC 0.04%, αFVH final 5 μM, 37°C, 5 minutes, Table 5", "value": 0.005}]}]}
